Results on 167 variants are retold here after the RNAGym collection of RNA variant scans (doi:10.7554/elife.80360).

The chains are these.
B1: Hairpin Ribozyme (parent)
chain: GUCCUCUUUCACGUGCGCGUGAAAGAGAGAAGUGAACCAGAGAAACACACGUUGUGGUAUAUUACCUGGUA

Variants of B1 are the subject of this series. Put plainly: self-cleavage, relative activity (ratio to wild type); higher = more cleavage; co-transcriptional.
Take C3U A26G: the self-cleavage was found to be 0.509.

In the case of C3U C46A, the self-cleavage is 0.121.

As to C3U C46G, the self-cleavage came out at 0.179.

For C3G A28U, the self-cleavage was 0.647.

As for C3G G17A, the self-cleavage was determined as 0.388.

Take C3A C50G: the self-cleavage was 0.199.

With C3U G17C, the self-cleavage stood at 0.305.

C3U G17A: the self-cleavage amounted to 0.682.

Take C3A C12U: the self-cleavage is 0.59.

As to C3A G54A, the self-cleavage stood at 0.351.

C3A G54C: the self-cleavage is 0.206.

For the variant C3A G17U, the self-cleavage stood at 0.571.

Regarding C3G A22G, the self-cleavage is 0.264.

As to C3G G29C, the self-cleavage was 0.0773.

Turning to C3G G29U, the self-cleavage worked out at 0.0672.

As to C3G A26G, the self-cleavage turned out to be 0.338.

Take C3A U55A: the self-cleavage was determined as 0.172.

In the case of C3A G57C, the self-cleavage was found to be 0.169.

For C3G C4U, the self-cleavage was found to be 0.277.

On to C3U C50A, for which the self-cleavage stood at 0.174.

On to C3G U20G, for which the self-cleavage was found to be 0.28.

On to C3A G51U, for which the self-cleavage came out at 0.792.

Take C3G U33A: the self-cleavage was 0.138.

Take C3A U7C: the self-cleavage turned out to be 0.621.

Regarding C3U A28C, the self-cleavage stood at 0.452.

For the variant C3G A59G, the self-cleavage turned out to be 0.0582.

For the variant C3G A59U, the self-cleavage amounted to 0.164.

Regarding C3A U5A, the self-cleavage is 0.214.

C3U A30C: the self-cleavage was determined as 0.161.

C3A U9G: the self-cleavage worked out at 0.576.

Take C3A U9C: the self-cleavage worked out at 0.532.

Consider C3A U9A, for which the self-cleavage came out at 0.401.

For C3G C18A, the self-cleavage turned out to be 0.34.

For C3G U62C, the self-cleavage was determined as 0.0668.

On to C3U A31U, for which the self-cleavage worked out at 0.102.

For the variant C3U G13A, the self-cleavage came out at 0.522.

Regarding C3U G13C, the self-cleavage was determined as 0.324.

For the variant C3G G56A, the self-cleavage was 0.115.

Regarding C3G G56U, the self-cleavage worked out at 0.157.

Take C3G G56C: the self-cleavage came to 0.112.

In the case of C3G G51C, the self-cleavage came out at 0.238.

As to C3G G51A, the self-cleavage amounted to 0.369.

Take C3A C18A: the self-cleavage stood at 0.634.

As to C3A C18U, the self-cleavage was 0.717.

As to C3G U63A, the self-cleavage worked out at 0.108.

On to C3G U63G, for which the self-cleavage was 0.18.

On to C3G A39C, for which the self-cleavage stood at 0.202.

With C3U A71U, the self-cleavage is 0.429.

On to C3U A71C, for which the self-cleavage worked out at 0.962.

With C3A U14G, the self-cleavage was 0.623.

Take C3A C10U: the self-cleavage was determined as 0.595.

As for C3G U52C, the self-cleavage came to 0.359.

As for C3G C10A, the self-cleavage was 0.18.

As for C3G G68A, the self-cleavage turned out to be 0.085.

In the case of C3U C65U, the self-cleavage came to 0.334.

For C3U C65A, the self-cleavage amounted to 0.611.

On to C3U A24C, for which the self-cleavage was 0.477.

C3U A41U: the self-cleavage amounted to 0.917.

With C3G C16G, the self-cleavage was determined as 0.34.

In the case of C3G G57U, the self-cleavage amounted to 0.0635.

With C3G G57C, the self-cleavage was found to be 0.0572.

C3G G57A: the self-cleavage turned out to be 0.102.

For the variant C3A G56A, the self-cleavage was found to be 0.127.

As for C3A G56U, the self-cleavage stood at 0.162.

Consider C3G A30G, for which the self-cleavage was 0.1.

Consider C3A G29U, for which the self-cleavage was determined as 0.0763.

C3G C6G: the self-cleavage was 0.214.

On to C3G C6U, for which the self-cleavage stood at 0.295.

As to C3A U60C, the self-cleavage was 1.07.

C3G G15C: the self-cleavage came out at 0.493.

In the case of C3A C6U, the self-cleavage stood at 0.471.

As for C3U C4G, the self-cleavage stood at 0.235.

As for C3G U70C, the self-cleavage came out at 0.235.

Regarding C3G A36C, the self-cleavage came to 0.165.

In the case of C3U C10G, the self-cleavage worked out at 0.457.

With C3A C38A, the self-cleavage came out at 0.215.

Take C3A C65U: the self-cleavage was found to be 0.222.

Take C3G U60A: the self-cleavage was 0.167.

As to C3G C48U, the self-cleavage was 0.0425.

Turning to C3G A45C, the self-cleavage came out at 0.0981.

As for C3G A45G, the self-cleavage stood at 0.118.

In the case of C3G U9C, the self-cleavage was found to be 0.357.

C3A G25C: the self-cleavage amounted to 0.202.

Consider C3U C48A, for which the self-cleavage stood at 0.167.

C3A G42C: the self-cleavage is 0.214.

In the case of C3G G13A, the self-cleavage turned out to be 0.255.

As for C3G G13C, the self-cleavage was 0.321.

In the case of C3U A35U, the self-cleavage is 0.339.

For C3U A35C, the self-cleavage is 0.802.

In the case of C3A U53G, the self-cleavage came to 0.613.

Turning to C3G A44U, the self-cleavage amounted to 0.114.

Turning to C3A U52A, the self-cleavage was 0.7.

On to C3G C46U, for which the self-cleavage was 0.101.

On to C3G C46A, for which the self-cleavage was 0.0768.

For the variant C3G A71U, the self-cleavage stood at 0.148.

With C3G A71C, the self-cleavage came out at 0.58.

For C3G U58A, the self-cleavage is 0.0819.

For the variant C3G U55C, the self-cleavage stood at 0.118.

With C3G U55G, the self-cleavage is 0.0936.

Consider C3A G40A, for which the self-cleavage was 0.23.

With C3U A23G, the self-cleavage stood at 0.325.

In the case of C3U A23U, the self-cleavage amounted to 0.535.

For the variant C3G G69A, the self-cleavage is 0.108.

For C3G A35U, the self-cleavage is 0.202.

As to C3G A35G, the self-cleavage was determined as 0.291.

Turning to C3A U20G, the self-cleavage was determined as 0.607.

Consider C3A U20A, for which the self-cleavage amounted to 0.582.

In the case of C3A G13C, the self-cleavage was determined as 0.51.

C3G C37G: the self-cleavage worked out at 0.0959.

Consider C3G C37U, for which the self-cleavage came out at 0.189.

As to C3A U62C, the self-cleavage came out at 0.2.

With C3U A43G, the self-cleavage is 0.138.

C3G A41C: the self-cleavage came to 0.341.

Regarding C3G A41U, the self-cleavage was 0.527.

For C3U C66U, the self-cleavage amounted to 0.239.

In the case of C3G G25C, the self-cleavage worked out at 0.0885.

With C3A C37A, the self-cleavage came out at 0.217.

Consider C3U A47G, for which the self-cleavage was 0.275.

For the variant C3U A47C, the self-cleavage was determined as 0.192.

Take C3U A47U: the self-cleavage is 0.208.

In the case of C3U G15U, the self-cleavage turned out to be 0.474.

Take C3U G15A: the self-cleavage worked out at 0.416.

Turning to C3A C48G, the self-cleavage turned out to be 0.158.

As for C3A C48U, the self-cleavage was 0.112.

With C3G C66A, the self-cleavage worked out at 0.101.

Take C3G U67A: the self-cleavage was 0.0949.

Consider C3U C16G, for which the self-cleavage amounted to 0.23.

On to C3G G54U, for which the self-cleavage worked out at 0.175.

As for C3G G54C, the self-cleavage is 0.126.

Regarding C3U A36G, the self-cleavage was determined as 0.505.

Consider C3G U5A, for which the self-cleavage turned out to be 0.15.

As to C3G U5G, the self-cleavage is 0.163.

Consider C3A C46U, for which the self-cleavage stood at 0.111.

As for C3G A47C, the self-cleavage was 0.0701.

For C3A G34C, the self-cleavage turned out to be 0.984.

For the variant C3G C65G, the self-cleavage is 0.0169.

With C3G U53C, the self-cleavage stood at 0.102.

C3G U53G: the self-cleavage came to 0.235.

Consider C3U A44U, for which the self-cleavage stood at 0.0496.

In the case of C3G C12G, the self-cleavage was 0.199.

For C3A U67A, the self-cleavage was 0.132.

Regarding C3A U67G, the self-cleavage stood at 0.199.

Turning to C3G G42C, the self-cleavage turned out to be 0.103.

As to C3U A59C, the self-cleavage is 0.143.

For C3G U14A, the self-cleavage came out at 0.431.

As to C3U C18A, the self-cleavage worked out at 0.641.

With C3U C18G, the self-cleavage came to 0.531.

Consider C3U C6U, for which the self-cleavage worked out at 0.347.

Regarding C3U C6A, the self-cleavage turned out to be 0.372.

Take C3A A71U: the self-cleavage worked out at 0.517.

On to C3U, for which the self-cleavage stood at 0.526.

For C3G, the self-cleavage was 0.296.

With C3U A11U, the self-cleavage came to 0.32.

For the variant C3G U8A, the self-cleavage was 0.377.

For the variant C3A U8C, the self-cleavage amounted to 0.427.

For C3G A61C, the self-cleavage is 0.168.

Turning to C3G A64U, the self-cleavage is 0.134.

As for C3U C38U, the self-cleavage amounted to 0.354.

Take C3U C37U: the self-cleavage worked out at 0.29.

Regarding C3A U33A, the self-cleavage amounted to 0.0769.

Turning to C3A G69C, the self-cleavage was found to be 0.342.

In the case of C3U A45G, the self-cleavage is 0.101.

With C3U A45C, the self-cleavage turned out to be 0.123.

For C3A C4U, the self-cleavage amounted to 0.42.

C3A C4G: the self-cleavage came out at 0.359.

In the case of C3G C38A, the self-cleavage was found to be 0.119.

For the variant C3G U7C, the self-cleavage turned out to be 0.372.
